In the Human Domainome abundance scans (Beltran et al. 2025):
± gives the uncertainty stated by the source.

B1: Homeobox protein cut-like 2, residues 895 to 963; numbered along this chain, O14529 (parent)
chain: EVDTLELTRQVKEKLAKNGICQRIFGEKVLGLSQGSVSDMLSRPKPWSKLTQKGREPFIRMQLWLSDQL

Variants of: B1
Experiment: abundance fitness (aPCA) (normalised: wild type 0, dead -1); higher = more abundant; growth selection in yeast, the domain comes from the species named
Conditions: Homo sapiens

Compared with EVDTLELTRQVKEKLAKNGICQRIFGEKVLGLSQDSVSDMLSRPKPWSKLTQKGREPFIRMQLWLSDQL [G35D], EVDTLELTRQVKEKLAKNGICQRIFGEKVLGLSQGSVSDMLSRPKPWMKLTQKGREPFIRMQLWLSDQL [S48M] is lower in abundance fitness: -0.125 ± 0.07 for the first, -0.323 ± 0.048 for the second.

Going from EVDTLELTRQVKEKLAKNGICQRIFGEKVNGLSQGSVSDMLSRPKPWSKLTQKGREPFIRMQLWLSDQL [L30N] to EVDTLELTRQVKEKLAKNGICQRIFGEKVLGLSQGSVSDMLSRPKPWSKLTQKGREPLIRMQLWLSDQL [F58L], the abundance fitness rises from -0.425 ± 0.063 to -0.274 ± 0.031.

First: EVDTLELTRQVKEKLAKNGICQRIFGEKVLGLSQGSVSDMKSRPKPWSKLTQKGREPFIRMQLWLSDQL [L41K]
Second: EVDTLELTRQVKEKLAKNGICQRIFGEKVLGLSQGSVSDMLSRPKPDSKLTQKGREPFIRMQLWLSDQL [W47D]
The abundance fitness of the first is higher: -0.193 ± 0.032 for the first, -0.772 ± 0.088 for the second.

First: EVDTLELTRQVKEKLRKNGICQRIFGEKVLGLSQGSVSDMLSRPKPWSKLTQKGREPFIRMQLWLSDQL [A16R]
Second: EVDTLELTRQVKEKLAKNGICQRIFGEKVLGLSQGSVSDMLSRPKPWSKLTQKGREPFIRMQLTLSDQL [W64T]
The abundance fitness of the first is higher: 0.036 ± 0.031 for the first, -1.31 ± 0.12 for the second.

Compared with EVDTLELTRQVKEKLAKNGICQRIFGEKVLGLSQGSVSDMLSRPKPWSKLTQKGREPFIRMQLHLSDQL [W64H], EVDTLELTRQVKEKLAKNGWCQRIFGEKVLGLSQGSVSDMLSRPKPWSKLTQKGREPFIRMQLWLSDQL [I20W] is higher in abundance fitness: -1.08 ± 0.14 for the first, -0.11 ± 0.077 for the second.

Compared with EVDTLELTRQVKEKLAKNGQCQRIFGEKVLGLSQGSVSDMLSRPKPWSKLTQKGREPFIRMQLWLSDQL [I20Q], EVDTLELTRQVKEKLAKNGICQRIFGEKVLVLSQGSVSDMLSRPKPWSKLTQKGREPFIRMQLWLSDQL [G31V] is lower in abundance fitness: -0.202 ± 0.046 for the first, -0.514 ± 0.052 for the second.

EVDTLELTRQVKEKLAKNGICQRIFGEKVLGLSQGSVSDMLSRPKPWSKLTQKGREHFIRMQLWLSDQL [P57H] and EVDTLELTRQVKEKLAKNGICQRIFGEKVLGLSQGSVSDMLSRPKPWSKLTQKGRESFIRMQLWLSDQL [P57S] are within error of each other in abundance fitness: -0.026 ± 0.041 for the first, -0.034 ± 0.033 for the second.

EVDTLELTRQVKEKWAKNGICQRIFGEKVLGLSQGSVSDMLSRPKPWSKLTQKGREPFIRMQLWLSDQL [L15W] and EVDTLELTRQVKEKLAKNGICQRIFGEKVLGLSQGSVSDMLSPPKPWSKLTQKGREPFIRMQLWLSDQL [R43P] are within error of each other in abundance fitness: -0.338 ± 0.034 for the first, -0.357 ± 0.027 for the second.

First: EVDTLELTRQVKEKLAKNGICQRIFGEKVLGLSQGSVSDMLSKPKPWSKLTQKGREPFIRMQLWLSDQL [R43K]
Second: EVDTLELTRQVKEKLAKNGICQRIFGEKVLGLSQGSVSDMLSRPKPWSKLTQKGFEPFIRMQLWLSDQL [R55F]
The abundance fitness of the first is higher: -0.047 ± 0.07 for the first, -0.569 ± 0.06 for the second.

Compared with EVDTLELTRQVKEKLAHNGICQRIFGEKVLGLSQGSVSDMLSRPKPWSKLTQKGREPFIRMQLWLSDQL [K17H], EVDTLELTRQVKEKLAKNGICQRIFGEKVLGLSQGSVSDMLSRPKPWSKLTQQGREPFIRMQLWLSDQL [K53Q] is higher in abundance fitness: -0.382 ± 0.093 for the first, -0.146 ± 0.035 for the second.

First: EVDTLELTRQVKEKLAKNGICQRIFGEKVLGLSQGSVSDMLSRPKPWSKRTQKGREPFIRMQLWLSDQL [L50R]
Second: EVDTLEDTRQVKEKLAKNGICQRIFGEKVLGLSQGSVSDMLSRPKPWSKLTQKGREPFIRMQLWLSDQL [L7D]
The abundance fitness of the first is lower: -1.11 ± 0.094 for the first, -0.074 ± 0.076 for the second.

First: EVDTLELTRQVKEDLAKNGICQRIFGEKVLGLSQGSVSDMLSRPKPWSKLTQKGREPFIRMQLWLSDQL [K14D]
Second: EVDTLELTRQVKEKLAKNGICQRIFGEKVLGLSQGSVSDMLSRPKPWSKLTQKGREPFIRLQLWLSDQL [M61L]
The abundance fitness of the first is lower: -0.55 ± 0.12 for the first, -0.191 ± 0.031 for the second.

Compared with EVDTLELTRQVKEKLAKNGICQRIFGEKVLGLSQGSVSDMLSRPKCWSKLTQKGREPFIRMQLWLSDQL [P46C], EVDTLELTRQVKEKLAKNGICQRIFGEKVLGLSQGSVSDMLSRPKYWSKLTQKGREPFIRMQLWLSDQL [P46Y] is higher in abundance fitness: -0.319 ± 0.079 for the first, -0.078 ± 0.035 for the second.

Compared with EVDTLELTRQVKEKLAKNGICQRIFGEKVLGLSQGSVSDMLSRPKPWSKLTQKLREPFIRMQLWLSDQL [G54L], EVDTLELTRQVKEKLAKNGICQRIFGEHVLGLSQGSVSDMLSRPKPWSKLTQKGREPFIRMQLWLSDQL [K28H] is lower in abundance fitness: -0.011 ± 0.029 for the first, -0.128 ± 0.054 for the second.

EVDTLELTRQVKEKLAKNGICQRIFGEKVLGLSQGSVSDMLSRPKPWSKLTQKGREPFIRMQLWLCDQL [S66C] and EVDTLELTRQVKEKLAKNGICQRIFGEKVLGLSQGSVSDDLSRPKPWSKLTQKGREPFIRMQLWLSDQL [M40D] are within error of each other in abundance fitness: -0.048 ± 0.15 for the first, -0.059 ± 0.13 for the second.

First: EVDTLELTRQVKEKLAKNGICQRIFGEKVLGLSQGSVSDPLSRPKPWSKLTQKGREPFIRMQLWLSDQL [M40P]
Second: EVDTLELTRQVVEKLAKNGICQRIFGEKVLGLSQGSVSDMLSRPKPWSKLTQKGREPFIRMQLWLSDQL [K12V]
The abundance fitness of the first is higher: -0.251 ± 0.037 for the first, -0.366 ± 0.036 for the second.

EVDTLELTRQVKEKLAKNGICQRIFGYKVLGLSQGSVSDMLSRPKPWSKLTQKGREPFIRMQLWLSDQL [E27Y] and EVDTLELTRQVKEKLAKNGICQRIFGFKVLGLSQGSVSDMLSRPKPWSKLTQKGREPFIRMQLWLSDQL [E27F] are within error of each other in abundance fitness: -0.191 ± 0.046 for the first, -0.173 ± 0.031 for the second.

Compared with EVDTLELTRQVKEKLAKNGICQRIFGTKVLGLSQGSVSDMLSRPKPWSKLTQKGREPFIRMQLWLSDQL [E27T], EVDTLELTRQVKEKLAKNGICQRIFGRKVLGLSQGSVSDMLSRPKPWSKLTQKGREPFIRMQLWLSDQL [E27R] is higher in abundance fitness: -0.149 ± 0.044 for the first, -0.019 ± 0.032 for the second.

EVDTLELTRQVKEKLAKNGICQRIFGEKVLGLSQGSVSDMLSRPKPWSKLTQKGREPFIRMQCWLSDQL [L63C] and EVDTLELTRQVKEKLAKNGICQRIFGEKVLGLSQGSVSDMLSRPKPWSKLTQKGRNPFIRMQLWLSDQL [E56N] are within error of each other in abundance fitness: -0.127 ± 0.09 for the first, -0.348 ± 0.14 for the second.

With EVDTLELTRQVKEKLAKNGICQRIFGEKVLGASQGSVSDMLSRPKPWSKLTQKGREPFIRMQLWLSDQL [L32A] the abundance fitness was -0.279 ± 0.078.
